B1: CCGTAGCTACGACGGAGGAAACTATGTTA (nucleic acid)
DNA: ATCCACGAGTGACGCAGCATGTTTAGGAAACCGTAGCTACGACGGAGGAAACTATGTTAAACATCCCCATGGACACGGTGGCTTAGT
modifications: DNA, backbone and methylation of C not given here
notes: TIC-specific DNA aptamer
B2: AAAGCTCCTTGGAATAGTCTAATACCGGA (nucleic acid)
DNA: ATCCACGAGTGACGCAGCACGAGCAACACAAAAGCTCCTTGGAATAGTCTAATACCGGAGCGAGAAAGCTGGACACGGTGGCTTAGT
modifications: listed as DNA, chemistry not given here
notes: TIC-specific DNA aptamer
B3: TGTGTATAAAGGGGCGGTGAAAAGCGAAT (nucleic acid)
DNA: ATCCACGAGTGACGCAGCACAGTGATCAGTTGTGTATAAAGGGGCGGTGAAAAGCGAATTCCAGTCGACTGGACACGGTGGCTTAGT
modifications: listed as DNA, chemistry not given here
notes: TIC-specific DNA aptamer
B4: AGAACTGGCCTTACTACGAAAAGTCCTTG (nucleic acid)
DNA: ATCCACGAGTGACGCAGCACCGAGAGGAGAGAACTGGCCTTACTACGAAAAGTCCTTGGTTGCCAGGGGTGGACACGGTGGCTTAGT
modifications: listed as DNA, chemistry not given here
notes: TIC-specific DNA aptamer
B5: GACGAGCTAAGAACCTTTAGGAGTGGAAA (nucleic acid)
DNA: ATCCACGAGTGACGCAGCACAGAGTGGAAGACGAGCTAAGAACCTTTAGGAGTGGAAAAGATAGCTCATGGACACGGTGGCTTAGT
modifications: DNA, backbone and methylation of C not given here
notes: TIC-specific DNA aptamer

Columns and labels:
[1] = test system: GS5-derived tumors; experiment: Survival of rats bearing GS5-derived brain tumors after a single infusion; format: in vivo; conditions: single infusion into rat brains bearing GS5-derived tumors
Text: (§2) We further evaluated whether this drug delivery system can be used to treat TIC-derived tumors. […] We successfully encapsulated DI into our brain-penetration nanoparticles, which were administrated via a single infusion into rat brains bearing GS5-derived tumors.

[2] = test system: GS5, a well-characterized TIC line; experiment: GS5 proliferation; format: cell-based
[3] = test system: GS5; experiment: GS5 sphere formation (TIC self-renewal); format: cell-based
Text: as §2

[4] = test system: CD133+ cell population; experiment: CD133+ cell population; format: cell-based
Text: as §2

[5] = test system: GBM cells from GBM1 (08-387), GBM2 (4121), GBM3 (08-322), GBM4 (3691) xenografts; experiment: Neurosphere formation assay of aptamer-high vs aptamer-low GBM cells; format: cell-based, human; conditions: four GBMs tested
Experimental: After overnight recovery of GBM cells from tissue dissociation, each Cy5-labeled aptamer was incubated with each specimen for 30 min. After washing thrice, labeled GBM cells were subjected to cell sorting. For the sphere formation assay, 10 cells of either aptamer^high and aptamer^low GBM cells sorted by FACS were directly plated into each well of a six well plate containing 200 μL of TIC culturing medium similar to our prior descriptions. After 10 to 14 days, the number of tumorspheres in each well was counted and plotted. For the cell proliferation assay, aptamer^high and aptamer^low GBM cells were sorted into each 15 mL tube, and equal numbers of cells were plated into 96 wells. Differences in cell growth were measured using Cell-Titer Glow (Promega™) according to the manufacturer's instructions and prior reports. Hjelmeland et al., PLoS biology, 8:e1000319 (2010); Li et al., Cancer cell, 15:501-13 (2009).

[6] = test system: GBM1 (08-387) cells injected intracranially; experiment: In vivo tumorigenic potential of aptamer-high vs aptamer-low GBM cells; set-up: species or system mice; conditions: for tumor incidence, aptamer-high cells / tumor incidence, aptamer-low cells: 300 cells implanted; for survival of mice injected with aptamer-high cells: 3000 or 300 cells intracranially, vs aptamer-low cells
Experimental: To determine tumorigenic potential, 300 or 3000 viable aptamer^high or aptamer^low GBM cells were intracranially injected into athymic/nude immunocompromised mice as we have previously described. Animals were maintained until the development of neurological signs including lethargy, seizure, ataxia, or paralysis or for a maximum of 60 days, when they were sacrificed. All animal procedures were performed in accordance with a Cleveland Clinic IACUC approved protocol.

[7] = test system: ReNCell CX immortalized human neural progenitors or primary human fetal neural progenitors; experiment: Flow cytometry aptamer binding to non-neoplastic neural progenitors
Experimental: (§1) Each FITC-labeled aptamer candidate was incubated with TICs or non-TICs in binding buffer on ice for 30 min. The cells were washed three times with binding buffer, and the pellets with the bound sequences were resuspended in 200 μL binding buffer. The fluorescence intensity was determined with a LSR II (BD Immunocytometry Systems) by counting 10,000 events. The FITC-labeled unselected single strand DNA library was used as a negative control. To determine the specificity of the selected aptamers, aptamer binding to additional GBM cells (08-322, 4121, U87MG) or neural progenitors (RenCell c-myc immortalized human neural progenitors, Millipore; human fetal neural progenitors, Lonza) was determined. For determination of aptamer binding to differentiated TICs, TICs were plated on Geltrex-coated plates in the presence of 10% serum and harvested after five days for FACS analysis.

[8] = test system: TICs; experiment: Flow cytometry to monitor aptamer binding to TICs; set-up: species or system human; conditions: GBM1, GBM2, GBM3
Experimental: as §1
To further evaluate the specificity of TIC-enriched aptamers, the fold change in fluorescence was calculated. Fluorescence shift was calculated using the equation (Faptamer−Fcell)/(Flibrary−Fcell), where Faptamer, Flibrary and Fcell refers to the fluorescence value of the aptamer, library, and cell itself. Using this calculation, specificity of aptamers A2-A6 for TICs in comparison to non-TICs was shown for all three GBMs tested (FIG. 2A-C).

| Molecule | neurosphere formation capacity of aptamer-enriched cells [5] | tumor incidence, aptamer-high cells [6] | tumor incidence, aptamer-low cells [6] | survival of mice injected with aptamer-high cells [6] | also measured |
| --- | --- | --- | --- | --- | --- |
| CCN1/C(=C/C=C/C=C/c2sc3ccccc3[n+]2CC)Sc2ccccc21 [DI, dithiazanine iodide] | – | – | – | – | median survival [1]: 177 days; IC50 [2]: 79 nM; inhibition of GS5 sphere formation [3]: 94%; decrease of the CD133+ cell population [4]: 57% |
| B1 | significantly segregated cells with neurosphere formation capacity in all four GBMs tested | – | – | – | – |
| B2 | significantly segregated cells with neurosphere formation capacity in all four GBMs tested | All mice | 3 of 4 | significantly reduced | – |
| B3 | greater neurosphere formation capacity in three of four GBMs tested | All mice | 2 of 4 | significantly reduced | binding to nonneoplastic neural progenitors [7]: bound both sets of non-neoplastic brain cells |
| B4 | significantly segregated cells with neurosphere formation capacity in all four GBMs tested | – | – | – | – |
| B5 | greater neurosphere formation capacity in three of four GBMs tested | – | – | – | fluorescence shift (Faptamer−Fcell)/(Flibrary−Fcell): specificity for TICs in comparison to non-TICs [8]: greater binding to TICs in GBM1 and GBM2, but not GBM3 |

From US9731032B2, “Aptamers for tumor initiating cells” (THE CLEVELAND CLINIC FOUNDATION, priority 2013, dated 2017)
